This note sets out measurements from publication PMC11982451 (The Journal of Biological Chemistry, 2025).

The assay deals with T1, 2CARD domain of human RIG-I, residues 1-200, recombinant (human, UniProt O95786 1-200).
T1 sequence (looked up): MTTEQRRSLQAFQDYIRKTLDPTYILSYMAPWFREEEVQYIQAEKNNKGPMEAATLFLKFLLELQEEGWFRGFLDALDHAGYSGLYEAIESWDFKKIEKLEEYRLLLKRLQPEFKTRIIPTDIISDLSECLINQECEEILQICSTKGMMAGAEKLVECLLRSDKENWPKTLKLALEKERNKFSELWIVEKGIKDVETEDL
Kind of assay: NMR titration.

B1: PRYSPRY domain (PSpry) of human TRIM25, residues 433-630, recombinant (domain or fragment, UniProt Q14258 433-630, looked up)
chain: STSLKAKVLETFLAKSRPELLEYYIKVILDYNTAHNKVALSECYTVASVAEMPQNYRPHPQRFTYCSQVLGLHCYKKGIHYWEVELQKNNFCGVGICYGSMNRQGPESRLGRNSASWCVEWFNTKISAWHNNVEKTLPSTKATRVGVLLNCDHGFVIFFAVADKVHLMYKFRVDFTEALYPAFWVFSAGATLSICSPK
As to B1, the binding result is “binds”.
